Measured values from the supplement of paper PMC9170038.

System: K4 kissing-loop RNA reporter
Assay: apparent KD of K4 kissing-loop reporter; higher = weaker reporter binding
Conditions: Eterna round: R107
Method: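 RNA-MaP round R107: designed RNA switches with theophylline, tryptophan, arginine or FMN aptamers are transcribed on-chip within common flanks. They are titrated with a labelled K4 kissing-loop RNA reporter in RNA-MaP buffer (100 mM Tris pH 7.5, 80 mM KCl, 4 mM MgCl2), without ligand or with the indicated ligand. Median apparent KD per design.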

[1] = input ligand: theophylline 20 uM
[2] = input ligand: tryptophan 2.4 mM
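Note: bound reporter read as fluorescence of individual clusters on recovered sequencing chips by microscopy, with normalized cluster intensities fitted with a binding model.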

Sequence: AGCAUUAUCAGAAGGAGCGUGUAUAAUUCAAGAGAAUUGUUUUCGAGUGAUGUUCGUAAUACACAGGUAGGUCGCUGAUAUAGCA [JR_ExcArginiB_Sub001]
- apparent KD of K4 kissing-loop reporter (input ligand: FMN 200 uM): 0.224 µM
- apparent KD of K4 kissing-loop reporter (input ligand: arginine 13.2 mM): 0.258 µM
- apparent KD of K4 kissing-loop reporter (input ligand: none): 0.257 µM
- apparent KD of K4 kissing-loop reporter [1]: 0.302 µM
- apparent KD of K4 kissing-loop reporter [2]: 0.221 µM

Sequence: AGGAUGUAGUGAUGUUAUAUAAGAAGUAAACGAGGACCGGUACGGCCGCCACUCGAAGCGGCUACUAGCGCGCGCGCGCGCGCGC [ExTryptoA.Ca]
- apparent KD of K4 kissing-loop reporter (input ligand: FMN 200 uM): 0.298 µM
- apparent KD of K4 kissing-loop reporter (input ligand: arginine 13.2 mM): 0.345 µM
- apparent KD of K4 kissing-loop reporter (input ligand: none): 0.263 µM
- apparent KD of K4 kissing-loop reporter [1]: 0.336 µM
- apparent KD of K4 kissing-loop reporter [2]: 0.259 µM

Sequence: GGAUCCACCAGUGAUGUUGGAGAAAACUCCAAGGAUAUGACGAAAGUCAGAAGGUGGUAGACUGGACAAAGUCCGGUGGGAUCCA [FmnA10 G78]
- apparent KD of K4 kissing-loop reporter (input ligand: FMN 200 uM): 0.661 µM
- apparent KD of K4 kissing-loop reporter (input ligand: arginine 13.2 mM): 0.141 µM
- apparent KD of K4 kissing-loop reporter (input ligand: none): 0.392 µM
- apparent KD of K4 kissing-loop reporter [1]: 0.438 µM
- apparent KD of K4 kissing-loop reporter [2]: 0.0887 µM

Sequence: AGGUGAGAGUGAAGGAGCGAUCGCGCCAGUGAUGUUGGUGAGCAUGACGAAAGUCAUGCCGAUCAGGUAGGUCGCACUCUUACUC [Omei KL Arginine B SS B v3]
- apparent KD of K4 kissing-loop reporter (input ligand: FMN 200 uM): 0.7 µM
- apparent KD of K4 kissing-loop reporter (input ligand: arginine 13.2 mM): 0.421 µM
- apparent KD of K4 kissing-loop reporter (input ligand: none): 0.663 µM
- apparent KD of K4 kissing-loop reporter [1]: 0.547 µM
- apparent KD of K4 kissing-loop reporter [2]: 0.798 µM

Sequence: GGAUAGGAUAGAGGAUAUGGUUUAGGCAAGAAUAACUUGUCAUGUAAAUCCAUGAGGAGUGAUGUUCCAGAAGGCUGUCCUAUCG [MatMod 8 - Jieux - Exclusion - FMN B]
- apparent KD of K4 kissing-loop reporter (input ligand: FMN 200 uM): 0.576 µM
- apparent KD of K4 kissing-loop reporter (input ligand: arginine 13.2 mM): 0.123 µM
- apparent KD of K4 kissing-loop reporter (input ligand: none): 0.121 µM
- apparent KD of K4 kissing-loop reporter [1]: 0.142 µM
- apparent KD of K4 kissing-loop reporter [2]: 0.0918 µM

Sequence: UCCUAGACUUAGCUAGGUAUAUAAUACGAUACCAGUCUAGAGAUAGACCCUUGGCAGCGUAGGCAGUGAUGUUGCCACUAGCUGA [Theo B SS t7a]
- apparent KD of K4 kissing-loop reporter (input ligand: FMN 200 uM): 0.0976 µM
- apparent KD of K4 kissing-loop reporter (input ligand: arginine 13.2 mM): 0.11 µM
- apparent KD of K4 kissing-loop reporter (input ligand: none): 0.103 µM
- apparent KD of K4 kissing-loop reporter [1]: 0.111 µM
- apparent KD of K4 kissing-loop reporter [2]: 0.101 µM

Sequence: CGUUUAUAGCAGGAUACCAGUACCCAUAAAGUACGUUAAUAGUAGAGUGAUGUUCUAAAGUACCCUUGGCAGCUUCGAGUGAGUG [ExTheophylB.R]
- apparent KD of K4 kissing-loop reporter (input ligand: FMN 200 uM): 0.0725 µM
- apparent KD of K4 kissing-loop reporter (input ligand: arginine 13.2 mM): 0.114 µM
- apparent KD of K4 kissing-loop reporter (input ligand: none): 0.0851 µM
- apparent KD of K4 kissing-loop reporter [1]: 0.103 µM
- apparent KD of K4 kissing-loop reporter [2]: 0.054 µM

Sequence: AAAGAUCUUCUAGAAACUAGAAGAUCAAGAGAGGAUAUCCGAAUUCGGAGAAGGCUCGCUAAGUGAUGUUUGGACCCAAAGGGAA [AK3.1 SS FMN A]
- apparent KD of K4 kissing-loop reporter (input ligand: FMN 200 uM): 1.1 µM
- apparent KD of K4 kissing-loop reporter (input ligand: arginine 13.2 mM): 0.984 µM
- apparent KD of K4 kissing-loop reporter (input ligand: none): 1.18 µM
- apparent KD of K4 kissing-loop reporter [1]: 0.753 µM
- apparent KD of K4 kissing-loop reporter [2]: 1.13 µM

Sequence: CCGGCCCGGCCGGAUACCAGUGCGCCGCAGGGAACGGCGGGCCCAGAGUGAUGUUCGGGACACCCUUGGCAGCCGCCUGGGUCGC [#2 Same State - Theophylline B Attempt #27 (HarryS)]
- apparent KD of K4 kissing-loop reporter (input ligand: FMN 200 uM): 0.286 µM
- apparent KD of K4 kissing-loop reporter (input ligand: arginine 13.2 mM): 0.123 µM
- apparent KD of K4 kissing-loop reporter (input ligand: none): 0.231 µM
- apparent KD of K4 kissing-loop reporter [1]: 0.225 µM
- apparent KD of K4 kissing-loop reporter [2]: 0.245 µM

Sequence: ACGACUGGAUGAAUAACAUCUAGUCGAGAUCGAGGACCGGUACGGCCGCCACUCGAGCUAACUGCGAGUGAUGUUCGAUAAUAAA [#OpenEnded 2]
- apparent KD of K4 kissing-loop reporter (input ligand: FMN 200 uM): 0.277 µM
- apparent KD of K4 kissing-loop reporter (input ligand: arginine 13.2 mM): 0.302 µM
- apparent KD of K4 kissing-loop reporter (input ligand: none): 0.253 µM
- apparent KD of K4 kissing-loop reporter [1]: 0.2 µM
- apparent KD of K4 kissing-loop reporter [2]: 0.0884 µM

Sequence: AAGGUCACUGCUACAGUGAUGUUGUGGGAGCAGGAUAUGCAGAAAUGCAGAAGGGCUCGCUCCAGGUGACCGAAUGAAACAUUCA [whbob_SS_FMNA__2th175]
- apparent KD of K4 kissing-loop reporter (input ligand: FMN 200 uM): 1.07 µM
- apparent KD of K4 kissing-loop reporter (input ligand: arginine 13.2 mM): 0.826 µM
- apparent KD of K4 kissing-loop reporter (input ligand: none): 1.5 µM
- apparent KD of K4 kissing-loop reporter [1]: 0.887 µM
- apparent KD of K4 kissing-loop reporter [2]: 1 µM

Sequence: UGAUAGGACAGAAGGAGCGGAAUCCUGUCAAAGACAGGAAAAUAAAUAAAAGGAGUGAUGUUCCAGGUAGGUCGCUGUCCUAUCU [ArgBX 19 #SwitchBubble #StaticStem]
- apparent KD of K4 kissing-loop reporter (input ligand: FMN 200 uM): 0.271 µM
- apparent KD of K4 kissing-loop reporter (input ligand: arginine 13.2 mM): 0.21 µM
- apparent KD of K4 kissing-loop reporter (input ligand: none): 0.248 µM
- apparent KD of K4 kissing-loop reporter [1]: 0.243 µM
- apparent KD of K4 kissing-loop reporter [2]: 0.215 µM

Sequence: CUCAAACCGUGGGCAUUUCGCAAAGUAGAUACCAGUCGCAACGGUGACCCUUGGCAGCUAGUAAAGUGAUGUUUUAUCGGCACCA [theeternabot_exclusion_KL_Theo_A_35]
- apparent KD of K4 kissing-loop reporter (input ligand: FMN 200 uM): 0.0784 µM
- apparent KD of K4 kissing-loop reporter (input ligand: arginine 13.2 mM): 0.0804 µM
- apparent KD of K4 kissing-loop reporter (input ligand: none): 0.078 µM
- apparent KD of K4 kissing-loop reporter [1]: 0.0786 µM
- apparent KD of K4 kissing-loop reporter [2]: 0.0691 µM

Sequence: UGUCAUGGAAACAUGAACGUUGAAAUAAGACGAGGACCGGUACGGCCGCCACUCGAAUAAUGGUCAGUGAUGUUGACUGGAAUAA [KL-SSTryp-A form1 sub7 #dotplot2>1]
- apparent KD of K4 kissing-loop reporter (input ligand: FMN 200 uM): 0.0605 µM
- apparent KD of K4 kissing-loop reporter (input ligand: arginine 13.2 mM): 0.104 µM
- apparent KD of K4 kissing-loop reporter (input ligand: none): 0.0703 µM
- apparent KD of K4 kissing-loop reporter [1]: 0.103 µM
- apparent KD of K4 kissing-loop reporter [2]: 0.0613 µM

Sequence: AAGUGUGUGGCGGCCGCCACUAGUAUCCAGUGAUGUUGGAGAUAUCACGUAAGUGAUAUCCAACAUAGGACCGGGCCAUAUAGAA [Same State - Tryptophan B (Freestyle 17)]
- apparent KD of K4 kissing-loop reporter (input ligand: FMN 200 uM): 0.145 µM
- apparent KD of K4 kissing-loop reporter (input ligand: arginine 13.2 mM): 0.0783 µM
- apparent KD of K4 kissing-loop reporter (input ligand: none): 0.101 µM
- apparent KD of K4 kissing-loop reporter [1]: 0.189 µM
- apparent KD of K4 kissing-loop reporter [2]: 0.0931 µM

Sequence: UGUACCGAGUCAGGAUAUGGCGUCGAAAGACGAAUUCUAGUGAUGUUAGGGAUCUGCGAAAGCAGUCCAGAAGGGACUUGGUACU [FmnBS 26 U36]
- apparent KD of K4 kissing-loop reporter (input ligand: FMN 200 uM): 0.322 µM
- apparent KD of K4 kissing-loop reporter (input ligand: arginine 13.2 mM): 0.439 µM
- apparent KD of K4 kissing-loop reporter (input ligand: none): 0.607 µM
- apparent KD of K4 kissing-loop reporter [1]: 0.692 µM
- apparent KD of K4 kissing-loop reporter [2]: 0.542 µM

Sequence: GGACAACUAUGUCCCAUACAAACAAGAGAUACCAGCCAUCAUAGAGGCCCUUGGCAGCUCAUAUAAUCCAGUGAUGUUGGAUUUC [Atgebeus]
- apparent KD of K4 kissing-loop reporter (input ligand: FMN 200 uM): 0.165 µM
- apparent KD of K4 kissing-loop reporter (input ligand: arginine 13.2 mM): 0.215 µM
- apparent KD of K4 kissing-loop reporter (input ligand: none): 0.179 µM
- apparent KD of K4 kissing-loop reporter [1]: 0.149 µM
- apparent KD of K4 kissing-loop reporter [2]: 0.148 µM

Sequence: CAUUCAGUGAUGUUGGAAGGCGAGCGGGAUACCAGCGGAGACUCACGCCCUUGGCAGCCCACAUAUCCCAGGUAGAUAAUAGUUC [Same State - Theophylline A (Freestyle 6)]
- apparent KD of K4 kissing-loop reporter (input ligand: FMN 200 uM): 0.237 µM
- apparent KD of K4 kissing-loop reporter (input ligand: arginine 13.2 mM): 0.139 µM
- apparent KD of K4 kissing-loop reporter (input ligand: none): 0.203 µM
- apparent KD of K4 kissing-loop reporter [1]: 0.189 µM
- apparent KD of K4 kissing-loop reporter [2]: 0.188 µM

Sequence: CCUCUCCUUGAUAGUGAUGUUAUCAAGGACAAGGAUAUCAUCUCAAUGAGAAGGUGUCCUUGAUAACAUGGAGGUCUGAAACAGA [Omei KL FMN A Exc C v1]
- apparent KD of K4 kissing-loop reporter (input ligand: FMN 200 uM): 0.138 µM
- apparent KD of K4 kissing-loop reporter (input ligand: arginine 13.2 mM): 0.126 µM
- apparent KD of K4 kissing-loop reporter (input ligand: none): 0.136 µM
- apparent KD of K4 kissing-loop reporter [1]: 0.125 µM
- apparent KD of K4 kissing-loop reporter [2]: 0.122 µM

Sequence: CAUUGUACACGGUGCGAAGACCCAAUGGAUACCAGCAAUACAUUAUGCCCUUGGCAGCCAAGAGUGAUGUUCGACGGACUAGAUU [theeternabot_sameState_KL_Theo_A_4]
- apparent KD of K4 kissing-loop reporter (input ligand: FMN 200 uM): 0.249 µM
- apparent KD of K4 kissing-loop reporter (input ligand: arginine 13.2 mM): 0.175 µM
- apparent KD of K4 kissing-loop reporter (input ligand: none): 0.29 µM
- apparent KD of K4 kissing-loop reporter [1]: 0.321 µM
- apparent KD of K4 kissing-loop reporter [2]: 0.233 µM

Sequence: UUUUUUAGUUGAGUUAUACAUAGCGGACUAUAGGAUAUCUAGAAAUAGAGAAGGAUAAGAGUGAUGUUCUUAUUCAACUAUAGUG
- apparent KD of K4 kissing-loop reporter (input ligand: FMN 200 uM): 0.101 µM
- apparent KD of K4 kissing-loop reporter (input ligand: arginine 13.2 mM): 0.0874 µM
- apparent KD of K4 kissing-loop reporter (input ligand: none): 0.0909 µM
- apparent KD of K4 kissing-loop reporter [1]: 0.109 µM
- apparent KD of K4 kissing-loop reporter [2]: 0.0916 µM
